In PMC11862924, “Phenylpyrazoles as Inhibitors of the m6A RNA-Binding Protein YTHDF2” one finds binding result and IC50 data, which are given here for two molecules.

As usually defined, the IC50 is the concentration at which inhibition is half-maximal.

For one data set, the target named is T1, YTHDC2 YTH domain (UniProt Q9H6S0 1285-1424).
T1 sequence: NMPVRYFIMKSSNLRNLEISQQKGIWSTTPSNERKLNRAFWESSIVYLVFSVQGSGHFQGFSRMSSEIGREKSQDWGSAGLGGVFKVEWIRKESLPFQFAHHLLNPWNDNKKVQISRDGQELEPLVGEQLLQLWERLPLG
As to conditions: protein: recombinant.

Another data set has as its target T2, YTHDF1 YTH domain (UniProt Q9BYJ9 375-552).
T2 sequence: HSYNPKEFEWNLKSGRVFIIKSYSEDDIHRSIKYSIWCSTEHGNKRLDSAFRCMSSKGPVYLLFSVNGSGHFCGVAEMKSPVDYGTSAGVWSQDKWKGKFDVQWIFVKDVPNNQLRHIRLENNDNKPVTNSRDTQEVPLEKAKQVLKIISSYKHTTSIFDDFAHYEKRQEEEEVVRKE
The note with it: protein: recombinant.

Another data set deals with T3, YTHDF3 YTH domain (UniProt Q7Z739 391-585).
T3 sequence: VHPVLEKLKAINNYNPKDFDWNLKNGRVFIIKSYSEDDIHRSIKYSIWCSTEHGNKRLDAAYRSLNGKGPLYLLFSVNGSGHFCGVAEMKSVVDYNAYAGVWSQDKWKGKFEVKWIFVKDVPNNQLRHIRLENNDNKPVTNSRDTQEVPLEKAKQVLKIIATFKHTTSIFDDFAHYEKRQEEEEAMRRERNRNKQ
The note with it: protein: recombinant.

The next data set addresses YTHDC1 YTH domain (UniProt Q96MU7 345-509). The data set can be described thus: EMSA; 20 nM RNA; FP: 20 mM HEPES/KOH pH 7.5, 50 mM NaCl, 0.005% Tween 20, 1 mM GSH (DTT), 4 C; EMSA: 20 mM HEPES pH 8.2, 50 mM NaCl, 0.05% Triton X-100, 5% glycerol, 4 C, 0.5x T. On the technique in general: A gel shift assay detects complexes by their altered migration in electrophoresis.
The target in another data set is T4, YTHDF2 YTH domain (UniProt Q9Y5A9 383-553).
T4 sequence: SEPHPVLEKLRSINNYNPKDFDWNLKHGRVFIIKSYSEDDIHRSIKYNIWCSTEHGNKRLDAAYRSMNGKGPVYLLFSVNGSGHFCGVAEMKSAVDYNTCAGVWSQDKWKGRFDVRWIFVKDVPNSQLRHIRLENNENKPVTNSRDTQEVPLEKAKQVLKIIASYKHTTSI
The note with it: protein: recombinant; tags: N-terminal His6 and GST; label: none.

Turning to UUCUUCUGUGGACUGUG (ssRNA, m6A at position 12) [FAM-17mer m6A RNA probe], the binding result in the data set with YTHDC2 YTH domain, with YTHDF1 YTH domain, in the data set with YTHDF3 YTH domain and with YTHDC1 YTH domain was “binds” each time.

On to UUCUUCUGUGGACUGUG (ssRNA, m6A at position 12) [unlabeled m6A RNA probe], for which, in the data set with YTHDF2 YTH domain, the IC50 was found to be 115 nM.
